# ± gives the standard deviation of the averaged measurements.
# Key:
# MCF7 = assay: percentage of EdU-negative (G0-arrested) nuclei per well, 72 h; higher = more G0 arrest; conditions: reference: sequence is the full UniProt precursor, the tested protein was the secreted form or ectodomain
# hTERT-HMEC = assay: as above; conditions: reference: sequence is the full UniProt precursor, the tested protein was the secreted form or ectodomain
# [1] = protein concentration 0.0225 µM
# [2] = protein concentration 0.0354286 µM
# [3] = protein concentration 0.354286 µM
# [4] = protein concentration 0.02179 µM
# [5] = protein concentration 0.2179 µM
# [6] = protein concentration 0.02325 µM
# [7] = protein concentration 0.2325 µM
# 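Note: secreted proteins added to cultured cells, EdU pulse at the end, nuclei found by Hoechst imaging, EdU status from nuclear versus surrounding ring intensity ratio, PBS as neutral control.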
sequence,measurement,setting,value
MDGAMGPRGLLLCMYLVSLLILQAMPALGSATGRSKSSEKRQAVDTAVDGVFIRSLKVNCKVTSRFAHYVVTSQVVNTANEAREVAFDLEIPKTAFISDFAVTADGNAFIGDIKDKVTAWKQYRKAAISGENAGLVRASGRTMEQFTIHLTVNPQSKVTFQLTYEEVLKRNHMQYEIVIKVKPKQLVHHFEIDVDIFEPQGISKLDAQASFLPKELAAQTIKKSFSGKKGHVLFRPTVSQQQSCPTCSTSLLNGHFKVTYDVSRDKICDLLVANNHFAHFFAPQNLTNMNKNVVFVIDISGSMRGQKVKQTKEALLKILGDMQPGDYFDLVLFGTRVQSWKGSLVQASEANLQAAQDFVRGFSLDEATNLNGGLLRGIEILNQVQESLPELSNHASILIMLTDGDPTEGVTDRSQILKNVRNAIRGRFPLYNLGFGHNVDFNFLEVMSMENNGRAQRIYEDHDATQQLQGFYSQVAKPLLVDVDLQYPQDAVLALTQNHHKQYYEGSEIVVAGRIADNKQSSFKADVQAHGEGQEFSITCLVDEEEMKKLLRERGHMLENHVERLWAYLTIQELLAKRMKVDREERANLSSQALQMSLDYGFVTPLTSMSIRGMADQDGLKPTIDKPSEDSPPLEMLGPRRTFVLSALQPSPTHSSSNTQRLPDRVTGVDTDPHFIIHVPQKEDTLCFNINEEPGVILSLVQDPNTGFSVNGQLIGNKARSPGQHDGTYFGRLGIANPATDFQLEVTPQNITLNPGFGGPVFSWRDQAVLRQDGVVVTINKKRNLVVSVDDGGTFEVVLHRVWKGSSVHQDFLGFYVLDSHRMSARTHGLLGQFFHPIGFEVSDIHPGSDPTKPDATMVVRNRRLTVTRGLQKDYSKDPWHGAEVSCWFIHNNGAGLIDGAYTDYIVPDIF,percentage of EdU-negative,MCF7; [1],26.48 ± 0.18%
same,percentage of EdU-negative,MCF7; protein concentration 0.225 µM,26 ± 0.27%
same,percentage of EdU-negative,hTERT-HMEC; [1],5.89 ± 0.64%
same,percentage of EdU-negative,hTERT-HMEC; protein concentration 0.225 µM,6.12 ± 0.16%
MDGLPGRALGAACLLLLAAGWLGPEAWGSPTPPPTPAAPPPPPPPGSPGGSQDTCTSCGGFRRPEELGRVDGDFLEAVKRHILSRLQMRGRPNITHAVPKAAMVTALRKLHAGKVREDGRVEIPHLDGHASPGADGQERVSEIISFAETDGLASSRVRLYFFISNEGNQNLFVVQASLWLYLKLLPYVLEKGSRRKVRVKVYFQEQGHGDRWNMVEKRVDLKRSGWHTFPLTEAIQALFERGERRLNLDVQCDSCQELAVVPVFVDPGEESHRPFVVVQARLGDSRHRIRKRGLECDGRTNLCCRQQFFIDFRLIGWNDWIIAPTGYYGNYCEGSCPAYLAGVPGSASSFHTAVVNQYRMRGLNPGTVNSCCIPTKLSTMSMLYFDDEYNIVKRDVPNMIVEECGCA,percentage of EdU-negative,MCF7; [2],24.4 ± 0.62%
same,percentage of EdU-negative,MCF7; [3],29.05 ± 0.099%
same,percentage of EdU-negative,hTERT-HMEC; [2],5.47 ± 0.17%
same,percentage of EdU-negative,hTERT-HMEC; [3],8.73 ± 0.18%
MDGWRRMPRWGLLLLLWGSCTFGLPTDTTTFKRIFLKRMPSIRESLKERGVDMARLGPEWSQPMKRLTLGNTTSSVILTNYMDTQYYGEIGIGTPPQTFKVVFDTGSSNVWVPSSKCSRLYTACVYHKLFDASDSSSYKHNGTELTLRYSTGTVSGFLSQDIITVGGITVTQMFGEVTEMPALPFMLAEFDGVVGMGFIEQAIGRVTPIFDNIISQGVLKEDVFSFYYNRDSENSQSLGGQIVLGGSDPQHYEGNFHYINLIKTGVWQIQMKGVSVGSSTLLCEDGCLALVDTGASYISGSTSSIEKLMEALGAKKRLFDYVVKCNEGPTLPDISFHLGGKEYTLTSADYVFQESYSSKKLCTLAIHAMDIPPPTGPTWALGATFIRKFYTEFDRRNNRIGFALAR,percentage of EdU-negative,MCF7; protein concentration 0.007 µM,27.1 ± 1.6%
same,percentage of EdU-negative,MCF7; [4],24.9 ± 1.8%
same,percentage of EdU-negative,MCF7; protein concentration 0.07 µM,28.5 ± 1.1%
same,percentage of EdU-negative,MCF7; [5],23.8 ± 2.5%
same,percentage of EdU-negative,hTERT-HMEC; protein concentration 0.007 µM,4.96 ± 0.18%
same,percentage of EdU-negative,hTERT-HMEC; [4],5 ± 0.54%
same,percentage of EdU-negative,hTERT-HMEC; protein concentration 0.07 µM,6.37 ± 0.25%
same,percentage of EdU-negative,hTERT-HMEC; [5],5.45 ± 0.35%
MDLLQFLAFLFVLLLSGMGATGTLRTSLDPSLEIYKKMFEVKRREQLLALKNLAQLNDIHQQYKILDVMLKGLFKVLEDSRTVLTAADVLPDGPFPQDEKLKDAFSHVVENTAFFGDVVLRFPRIVHYYFDHNSNWNLLIRWGISFCNQTGVFNQGPHSPILSLMAQELGISEKDSNFQNPFKIDRTEFIPSTDPFQKALREEEKRRKKEEKRKEIRKGPRISRSQSEL [Q9H6E4],percentage of EdU-negative,MCF7; [6],27.1 ± 0.79%
same,percentage of EdU-negative,MCF7; [7],26.7 ± 0.95%
same,percentage of EdU-negative,hTERT-HMEC; [6],5.552 ± 0.014%
same,percentage of EdU-negative,hTERT-HMEC; [7],6.34 ± 0.88%
MDLRDFYLLAALIACLRLDSAIAQELIYTIREELPENVPIGNIPKDLNISHINAATGTSASLVYRLVSKAGDAPLVKVSSSTGEIFTTSNRIDREKLCAGASYAEENECFFELEVVILPNDFFRLIKIKIIVKDTNDNAPMFPSPVINISIPENTLINSRFPIPSATDPDTGFNGVQHYELLNGQSVFGLDIVETPEGEKWPQLIVQQNLDREQKDTYVMKIKVEDGGTPQKSSTAILQVTVSDVNDNRPVFKEGQVEVHIPENAPVGTSVIQLHATDADIGSNAEIRYIFGAQVAPATKRLFALNNTTGLITVQRSLDREETAIHKVTVLASDGSSTPARATVTINVTDVNDNPPNIDLRYIISPINGTVYLSEKDPVNTKIALITVSDKDTDVNGKVICFIEREVPFHLKAVYDNQYLLETSSLLDYEGTKEFSFKIVASDSGKPSLNQTALVRVKLEDENDNPPIFNQPVIELSVSENNRRGLYLTTISATDEDSGKNADIVYQLGPNASFFDLDRKTGVLTASRVFDREEQERFIFTVTARDNGTPPLQSQAAVIVTVLDENDNSPKFTHNHFQFFVSENLPKYSTVGVITVTDADAGENKAVTLSILNDNDNFVLDPYSGVIKSNVSFDREQQSSYTFDVKATDGGQPPRSSTAKVTINVMDVNDNSPVVISPPSNTSFKLVPLSAIPGSVVAEVFAVDVDTGMNAELKYTIVSGNNKGLFRIDPVTGNITLEEKPAPTDVGLHRLVVNISDLGYPKSLHTLVLVFLYVNDTAGNASYIYDLIRRTMETPLDRNIGDSSQPYQNEDYLTIMIAIIAGAMVVIVVIFVTVLVRCRHASRFKAAQRSKQGAEWMSPNQENKQNKKKKRKKRKSPKSSLLNFVTIEESKPDDAVHEPINGTISLPAELEEQSIGRFDWGPAPPTTFKPNSPDLAKHYKSASPQPAFHLKPDTPVSVKKHHVIQELPLDNTFVGGCDTLSKRSSTSSDHFSASECSSQGGFKTKGPLHTRQCNSHSKSDNIPVTPQKCPSSTGFHIQENEESHYESQRRVTFHLPDGSQESCSDSGLGDHEPVGSGTLISHPLPLVQPQDEFYDQASPDKRTEADGNSDPNSDGPLGPRGLAEATEMCTQECLVLGHSDNCWMPPGLGPYQHPKSPLSTFAPQKEWVKKDKLVNGHTLTRAWKEDSNRNQFNDRKQYGSNEGHFNNGSHMTDIPLANLKSYKQAGGATESPKEHQL [Q9HC56],percentage of EdU-negative,MCF7; [1],25.9 ± 2.1%
same,percentage of EdU-negative,MCF7; protein concentration 0.225 µM,32.9 ± 2.9%
same,percentage of EdU-negative,hTERT-HMEC; [1],4.64 ± 0.43%
same,percentage of EdU-negative,hTERT-HMEC; protein concentration 0.225 µM,13.4 ± 3.9%

# Source: the supplement of paper PMC11316812
